US20230203146A1 (Boehringer Ingelheim, published 2023)
Changes are numbered by the printed parent chain.

T1: recombinant human Ang2-FLD (human, UniProt O15123 275-496, limits assumed)
T1 construct: domain: FLD; not used
T1 sequence (looked up): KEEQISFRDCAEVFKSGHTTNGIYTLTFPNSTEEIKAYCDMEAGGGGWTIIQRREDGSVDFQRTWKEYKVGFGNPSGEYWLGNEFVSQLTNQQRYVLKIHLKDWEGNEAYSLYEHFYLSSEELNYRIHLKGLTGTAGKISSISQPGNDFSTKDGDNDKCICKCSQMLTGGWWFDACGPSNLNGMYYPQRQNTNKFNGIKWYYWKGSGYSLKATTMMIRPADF

B1: VHH 55D06 (VHH)
VHH: EVQLVESGGGLVQAGGSLRLSCAASGLTLDDYAIGWFRQAPGKEREGVSSIRDNDGSTYYADSVKGRFTISSDNDKNTVYLQMNSLKPEDTAVYYCAAVPAGRLRFGEQWYPIYEYDAWGQGTLVTVSS
notes: periplasmic extract; not shown: C-terminal c-myc tag and His6 tag
B2: VHH 64B01 (VHH)
VHH: B1 VHH with S17T, A24V, L27F, T123I
notes: as for B1
B3: VHH 55G03 (VHH)
VHH: B1 VHH with G10S
notes: as for B1
B4: VHH 53A06 (VHH)
VHH: B1 VHH with G10S
notes: as for B1
B5: VHH 64A03 (VHH)
VHH: B1 VHH with V5L, L27F, F106I
notes: as for B1
B6: VHH 56A07 (VHH)
VHH: B1 VHH with L27F, F68S, D75A, K76R, Y80F
notes: as for B1
B7: VHH 60A06 (VHH)
VHH: B1 VHH with L27F, E44D, F106Y, L124V
notes: as for B1
B8: VHH 64F03 (VHH)
VHH: B1 VHH with A24V, L27I, I34V, S50T, E89K
notes: as for B1
B9: VHH 64F07 (VHH)
VHH: B1 VHH with E1Q, A24V, L27F, K76Q, P88S
notes: as for B1
B10: VHH 64B02 (VHH)
VHH: B1 VHH with S17F, S21T, A24V, L27F, D75V
notes: as for B1
B11: VHH 60C09 (VHH)
VHH: B1 VHH with A24V, L27I, G66W, L86M, T123I
notes: as for B1
B12: VHH 64C07 (VHH)
VHH: B1 VHH with Q3H, K43V
notes: as for B1
B13: VHH 64G01 (VHH)
VHH: B1 VHH with L27F, T69I, S85N, F106Y
notes: as for B1
B14: VHH 55F02 (VHH)
VHH: B1 VHH with A14S
notes: as for B1
B15: VHH 55A06 (VHH)
VHH: B1 VHH with V5M, L27I, Y80N
notes: as for B1
B16: VHH 64E12 (VHH)
VHH: B1 VHH with A24V, L27F, F68S
notes: as for B1
B17: VHH 58D10 (VHH)
VHH: B1 VHH with V2E, Q3L, L11S, R19K
notes: as for B1
B18: VHH 64C03 (VHH)
VHH: B1 VHH with L27F, F106Y
notes: as for B1
B19: VHH 64D11 (VHH)
VHH: B1 VHH with L11Q, V12A, A24V, L27F, A61T
notes: as for B1

The binders below were run against T1, recombinant human Ang2-FLD (assay: ProteOn off-rate assay, periplasmic extract 1:10 over coated human Ang2-FLD).
Experimental: In a first cycle, amino acid substitutions are introduced randomly in both framework (FW) and complementary determining regions (CDR) using the error-prone PCR method. […] After a polish step, PCR products are inserted via unique restriction sites into a vector designed to facilitate phage display of the VHH library. […] Periplasmic extract of affinity matured clones is diluted 1:10 and injected across the “analyte channels” A1-A6.

fold improvement (off-rate against VHH 00027) | koff | Binder
9.4 fold | 0.00012 s⁻¹ | B1
8.2 fold | 0.00014 s⁻¹ | B2
8 fold | 0.00015 s⁻¹ | B3
8 fold | 0.00016 s⁻¹ | B4
8.3 fold | 0.00014 s⁻¹ | B5
8.1 fold | 0.00015 s⁻¹ | B6
8.3 fold | 0.00016 s⁻¹ | B7
10.8 fold | 0.00011 s⁻¹ | B8
9.4 fold | 0.00012 s⁻¹ | B9
8.5 fold | 0.00014 s⁻¹ | B10
8.5 fold | 0.00016 s⁻¹ | B11
8.3 fold | 0.00014 s⁻¹ | B12
8.2 fold | 0.00014 s⁻¹ | B13
8.7 fold | 0.00014 s⁻¹ | B14
9.2 fold | 0.00013 s⁻¹ | B15
8.7 fold | 0.00013 s⁻¹ | B16
8.1 fold | 0.00013 s⁻¹ | B17
9.2 fold | 0.00013 s⁻¹ | B18
10.3 fold | 0.00011 s⁻¹ | B19
